According to publication PMC9270183 (The Journal of Experimental Medicine, 2022):

B1: V025 (antibody, V domains shown)
VH: QVQLVQSGAEVKKPGASVKVSCKASGYTFTSYGISWVRQAPGQGLEWMGWISVYNGKTNYAQKLQGRVTMTTDTSTSTAYMELRSLISDDTAVYYCARADRYNWDYGSSWGQGTLVTVSS
VL: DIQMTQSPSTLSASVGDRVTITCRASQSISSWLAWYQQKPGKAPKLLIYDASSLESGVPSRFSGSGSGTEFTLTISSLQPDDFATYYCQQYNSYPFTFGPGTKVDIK
notes: IgG; donor BRA13; source: recombinant monoclonal IgG, produced and purified as previously described
B2: V017 (antibody, V domains shown)
VH: EVQLVESGGGLVQPGGSLRLSCVASGFTFSTYSMNWVRQAPGKGLEWVSYISSSSSTIYYADSVKGRFTISRDNAKSSLYLQMNSLRAEDTAVYYCASGLCGGDCPLTCWGQGTLVTVSS
VL: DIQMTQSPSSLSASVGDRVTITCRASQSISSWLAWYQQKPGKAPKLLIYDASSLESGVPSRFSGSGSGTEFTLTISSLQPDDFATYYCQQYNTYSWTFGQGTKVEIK
notes: as for B1
B3: V062 (antibody, V domains shown)
VH: QLQLQESGPGLVKPSETLSLTCTVSSGSISSSSYYWGWIRQPPGKGLEWIGSIYYSGSTYYNPSLKSRVTISVDTSKNQFSLKLSSVTAADTAVYYCARHWRENFAHAFDIWGQGTMVTVSS
VL: QSALTQPASVSGSPGQSITISCTGTSSDVGSYDLVSWFQQHPGKAPKLMIYEVTKRPSGVSNRFSGSKSGNTASLTISGLQAEDEADYYCCSYVGSSTYWVFGGGTKLTVL
notes: IgG; donor BRA15; source: recombinant monoclonal IgG, produced and purified as previously described
B4: V028 (antibody, V domains shown)
VH: QVQLVESGGGVVQPGRSLRLSCAASGFTFSSYGMHWVRQAPGKGLEWVAVVSFDGSDKYYADSVKGRFTISRDNSKNTLYLQMNSLRAEDTALYYCAKGGYSYAYPRYYFDYWGQGTLVTVSS
VL: DIQMTQSPSSLSASVGDRVTITCQASQDISNYLNWYQQKPGKAPKLLIYDASNLETGVPSRFSGSGSGTDFTFTISSLQPEDIATYYCQQHDNLPITFGQGTRLEIK
notes: IgG; donor BRA14; source: recombinant monoclonal IgG, produced and purified as previously described
B5: V031 (antibody, V domains shown)
VH: QVQLVESGGGVVQPGRSLRLSCAASGFTFSSYGMHWVRQAPGKGLEWVAVISYDGSNKYYADSVKGRFAFSRDNSKNTLYLQMNSLRAEDTAVYYCAKGGYSYAYPRYYFDYWGQGTLVTVSS
VL: DIQMTQSPSSLSASVGDRVTITCQASQDISNYLNWYQQKPGKAPKLLIYDASNLETGVPSRFSGSGSGTDFTFTISSLQPEDIATYYCQQHDNLPITFGQGTRLEIK
notes: as for B4
B6: V064 (antibody, V domains shown)
VH: EVQLVESGGGLVQPGGSLRLSCAASGLTVSRNYMRWVRQAPGKGLEWVSLIYSGGSTFYGDSVKGRFTISRDNSKNTLYLQMNSLRAEDTAVYYCARDLVRDGMDVWGQGTTVTVSS
VL: EIVMTQSPATLSVSPGERATLSCRASQSVSSNLAWYQQKPGQAPRLLIYGASTRATGIPARFSGSGSGTEFTLTISSLQSEDFAVYYCQQYNNWTFGQGTKVEIK
notes: as for B3
B7: V021 (antibody, V domains shown)
VH: QVQLQESGPGLVKPSQTLSLTCTVSGGSISSGSYYWSWIRQPVGKGLEWIGRIYTSGSTNYNPSLKSRVTISVDTSKNQFSLELSSVTAADRAVYYCARESSPASIPVRGVIWWFDPWGQGTLVTVSS
VL: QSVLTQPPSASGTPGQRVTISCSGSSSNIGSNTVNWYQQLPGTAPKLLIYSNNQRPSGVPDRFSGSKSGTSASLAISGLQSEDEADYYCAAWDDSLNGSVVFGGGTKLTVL
notes: IgG; donor BRA13
B8: V015 (antibody, V domains shown)
VH: EVQLVESGGGLVQPGGSLRLSCAASGFTFNSYWMSWVRQAPGKGLEWVANIKQDGSEKYYVDSVKGRFTISRDNAKNSLYLQMNSLRAEDTAVYYCARLPTYYSGFDYWGQGTLVTVSS
VL: NFMLTQPHSVSESPGKTVTISCTGSSGSIASNYVQWYQQRPGSAPTTVIYEDNQRPSGVPDRFSGSIDSSSNSASLTISGLKTEDEADYYCQSYDSTNRGVVFGGGTKLTVL
notes: as for B1
B9: V019 (antibody, V domains shown)
VH: QVQLVQSGAEVKKPGSSVKVSCKASGGTFSTYTFSWVRQAPGQGLEWMGRIIPILGIANYAQKFQGRITITADKSTSTAYMELSSLRSEDTAVYYCAWGSYSYGYFVDIWGQGTMVTVSS
VL: DIVMTQTLLSLSVTPGQPASISCKSSQSLLHSDGKTYLYWYLQKPGQSPQLLIYEVSSRFSGVPDRFSGSGSGTDFTLKISRVEAEDVGVYYCMQGIQFHWTFGQGTKLEIK
notes: as for B1
B10: V009 (antibody, V domains shown)
VH: EVQLVQSGAEVKKPGESLKISCKGSGYRFTSYWIGWVRQMPGKGLEWMGIIYAGDSDTRYSPSFQGQVTISVDKSISTAYLQWSSLKASDTAMYYCATTMTTGYFDYWGQGTLVTVSS
VL: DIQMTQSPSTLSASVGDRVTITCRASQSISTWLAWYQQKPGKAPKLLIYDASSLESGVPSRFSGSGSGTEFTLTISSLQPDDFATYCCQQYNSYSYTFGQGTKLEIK
notes: as for B1
B11: V014 (antibody, V domains shown)
VH: EVQLVESGGGLVQPGGSLRLSCAASGFTFSSYDMHWVRQATGKGLEWVSAIGTAGDTYYPGSVKGRFTISRENAKNSLYLQMNSLRAGDTAVYYCARGVITMVRGVIRDYYYYGMDVWGQGTTVTVSS
VL: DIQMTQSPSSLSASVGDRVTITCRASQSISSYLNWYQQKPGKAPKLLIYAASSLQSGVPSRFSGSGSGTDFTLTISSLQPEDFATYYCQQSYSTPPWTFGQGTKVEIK
notes: as for B1
B12: V022 (antibody, V domains shown)
VH: EVQLVESGGGLVKPGGSLRLSCAASGFTFSSYSMNWVRQAPGKGLEWVSSISSTNNYIYNADSVKGRFTISRDNAKNSLYLQMNSLRAEDTAVYYCARDPAGRYSYGLYYFYYMDVWGKGTTVTVSS
VL: QSALTQPASVSGSPGQSITISCTGTSSDVGGYNYVSWYQQRPGKAPKLMIYDVSNRPSGVSDRFSGSKSGNTASLTISGLQAEDEADYYCTSYTSSSSLYVFGTGTKVTVL
notes: as for B1
B13: V011 (antibody, V domains shown)
VH: QVQLVQSGAEVKKPGASVKVSCKASGYIFTSYDINWVRQATGQGLEWMGWMNPNSGNTGYAQKFQGRVTMTRNTSISTAYMELSSLRSEDTAVYYCARASSSLTYYFDYWGQGTLVTVSS
VL: SYELTQPPSVSVAPGKTARITCGENNIGSKSVHWYQQKPGQAPVLVVYDDSDRPSGIPERFSGSNSGNTATLTISRVEAGDEADYYCQVWDSSSDPVVFGGGTKLTVL
notes: as for B1
B14: V002 (antibody, V domains shown)
VH: EVQLVESGGGLVQPGRSLRLSCAASGFTFDEYAMHWVRQAPGKGLEWVSGSSWNSGTIGYADSVKGRFTISRDNAKNSLYLQMNSLRAEDTALYYCAKSQGDYGGNSGAGYFQHWGQGTLVTVSS
VL: SYELTQPPSVSVAPGKTARITCGGNNIGSKSVHWYQQKPGQAPMLVVYDDSDRPSGIPERFSGSNSGNTATLTISRVEAGDEADYYCQVWDSSSEVYVFGTGTKVTVL
notes: as for B1
B15: V013 (antibody, V domains shown)
VH: QVQLVESGGGVVQPGRSLRLSCAGSGFIFSSFAMHWVRQAPGKGLEWVAVVSYDGDNKYYADSVKGRFTISRDNSKNTLYLQMDSLRPEDTAVYFCGRDEAALWIQRWYREIDFWGQGTLVTVSS
VL: QSVLTQPPSVSGTPGQRVTISCSGSSSNTGRNPVTWYQQFPGSAPKLLISRNNQRPSGVPDRFSGSKSGTSASLAISGLQSEDEADYYCAAWDDNLNGQVFGGGTKVTVL
notes: as for B1
B16: V020 (antibody, V domains shown)
VH: QVQLVESGGGVVQPGRSLRLSCAASGFTFSSYGMHWVRQAPGKGLEWVAVISYDGSNKYYADSVKGRFTISRDNSKNTLYLQMNSLRAEDTAVYYCAKGGWFGELLRYFDYWGQGTLVTVSS
VL: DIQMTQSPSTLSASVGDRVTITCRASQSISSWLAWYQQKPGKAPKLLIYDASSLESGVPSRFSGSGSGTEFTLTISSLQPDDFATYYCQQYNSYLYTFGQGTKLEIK
notes: as for B1
B17: V026 (antibody, V domains shown)
VH: QVQLVESGGGVVQPGRSLRLSCAVSGFTFSSYGMHWVRQAPGKGLEWVAVISYEGSNKYYADSVKGRFTISRDNSKNTLYLQMNSLRAEDTAVYYCAKGGWYGSPTYYFDYWGQGTLVTVSS
VL: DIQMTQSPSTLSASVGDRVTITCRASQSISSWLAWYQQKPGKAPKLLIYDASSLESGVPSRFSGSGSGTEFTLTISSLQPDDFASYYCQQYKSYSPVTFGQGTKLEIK
notes: as for B1
B18: V010 (antibody, V domains shown)
VH: QVQLQESGPGLVKPSETLSLTCTVSGGSISSYYWSWIRQPPGKGLEWIGYIYYNGSTNYNPSLKSRVTISLDTSKNQFSLKLSSVTAADTAVYYCASDYYDSSGYYYGFDYWGQGTLVTVSS
VL: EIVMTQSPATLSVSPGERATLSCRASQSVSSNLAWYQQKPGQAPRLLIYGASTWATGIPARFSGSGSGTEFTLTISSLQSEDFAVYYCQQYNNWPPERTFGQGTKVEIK
notes: as for B1
B19: V027 (antibody, V domains shown)
VH: not shown
VL: NFMLTQPHSVSESPGKTVTISCTRSSGSIASNYVQWYQQRPGSAPTTVIYEDNQRPSGVPDRFSGSIDSSSNSASLTISGLKTEDEADYYCQSYDSSNHRVFGGGTKLTVL
notes: as for B4
B20: V063 (antibody, V domains shown)
VH: QVQLVESGGGVVQPGRSLRLSCAASGFPFSSFGMHWVRQAPGKGLEWVAVISSDGSNKYYADSVKGRFTISRDNSKNTLYLQMNSLRAEDTAVYYCAKEFTYVVVTAFWGTENFDIWGQGTMVTVSS
VL: DIQMTQSPSTLSASVGDRVTITCRASQSISSWLAWYQQKPGKAPNLLIYKASALESGVPSRFSGSGSGTEFTLTISSLQPDDFATYYCQQYNSYPITFGQGTRLEIK
notes: as for B3
B21: V016 (antibody, V domains shown)
VH: QVQLVESGGGVVQPGRSLRLSCAASGFTFSNYGMHWVRQAPGKGLEWVAVISYDGSNKYYADSVKGRFTISRDNSKNTLYLQMNSVRVEDTAVYYCAKGSFGYSYVHTYFDYWGQGTLVTVSS
VL: DIQMTQSPSTLSASVGDRVTITCRASQSISSWLAWYQQKPGKAPKLLIYDASSLESGVPSRFSGSGSGTEFILTISSLQPDDFATYYCQQYNSPMYTFGQGTKLEIK
notes: as for B1
B22: V024 (antibody, V domains shown)
VH: QVQLVESGGGVVQPGRSLRLSCAASGFTFSSYGMHWVRQAPGKGLEWVAVISYDGSNKYYADSVKGRFTISRDNSKNTLYLQMNSLRGEDTAVYYCAKAGYGYSYGYGQIDYWGQGTLVTVSS
VL: not shown
notes: IgG; donor BRA13

These binders were tested against T1, 417N/484K/501Y RBD mutant (SARS-CoV-2, Wuhan-Hu-1 RBD backbone …, 417N | 484K | 501Y) (assay: BLI). Details: both partners purified.
T1 construct: also called RBD KEN

| Binder | Kd [nM] |
| --- | --- |
| B1 | 2.84 |
| B2 | 27.1 |
| B3 | 1.89 |
| B4 | 44.6 |
| B5 | 14.5 |
| B6 | 1.91 |
| B7 | 32.6 |
| B8 | 14.3 |
| B9 | 3.31 |
| B10 | 1.83 |
| B11 | 27.3 |
| B12 | 5.71 |
| B13 | 6.96 |
| B14 | 979 |
| B15 | 166 |
| B16 | 94.8 |
| B17 | 11.9 |
| B18 | 2.11 |
| B19 | 37.3 |
| B20 | 3.34 |
| B21 | 4.43 |
| B22 | 33.2 |
